Laboratory results taken from the supplement of paper PMC10065799, “High-throughput profiling of sequence recognition by tyrosine kinases and SH2 domains using bacterial peptide display” (eLife, 2023).

What was measured:
SHP2-C SH2 = assay: SH2 binding enrichment of the phosphorylated peptide, bacterial display (enrichment ratio); higher = better substrate or ligand; peptides without Tyr show the background
Grb2 SH2 = Grb2 SH2 (UniProt P62993); assay: as above
c-Src SH2 = assay: as above
EPHB2 = EPHB2 (UniProt P29323); assay: phosphorylation enrichment, bacterial display (enrichment ratio); higher = better substrate or ligand; peptides without Tyr show the background
AncSZ = assay: as above
FGFR3 = FGFR3 (UniProt P22607); assay: as above
MERTK = MERTK (UniProt Q12866); assay: as above
Jak2 = Jak2 (UniProt O60674); assay: as above
Fer (mouse) = assay: as above
Hck = Hck (UniProt P08631); assay: as above
EPHB1 = EPHB1 (UniProt P54762); assay: as above
c-Src = assay: as above
Fyn = Fyn (UniProt P06241); assay: as above
FGFR1 = FGFR1 (UniProt P11362); assay: as above
c-Abl (mouse) = assay: as above
Fes = Fes (UniProt P07332); assay: as above
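Throughout, for SH2 binding enrichment of the phosphorylated peptide, bacterial display: peptide library displayed on the E. coli surface as eCPX fusions, selected cells deep-sequenced, score is each peptide's frequency after selection divided by its frequency in the input.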
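Throughout, for phosphorylation enrichment, bacterial display: 11-residue human phosphosite peptides and single-mutation variants displayed on the E. coli surface, counted by deep sequencing, each peptide's frequency after selection divided by its frequency in the unselected input library; frequency after pTyr selection over input frequency; kinase dosed for 20-30% of maximal phosphorylation in three min.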

Hck, sequence (P08631 whole entry, looked up): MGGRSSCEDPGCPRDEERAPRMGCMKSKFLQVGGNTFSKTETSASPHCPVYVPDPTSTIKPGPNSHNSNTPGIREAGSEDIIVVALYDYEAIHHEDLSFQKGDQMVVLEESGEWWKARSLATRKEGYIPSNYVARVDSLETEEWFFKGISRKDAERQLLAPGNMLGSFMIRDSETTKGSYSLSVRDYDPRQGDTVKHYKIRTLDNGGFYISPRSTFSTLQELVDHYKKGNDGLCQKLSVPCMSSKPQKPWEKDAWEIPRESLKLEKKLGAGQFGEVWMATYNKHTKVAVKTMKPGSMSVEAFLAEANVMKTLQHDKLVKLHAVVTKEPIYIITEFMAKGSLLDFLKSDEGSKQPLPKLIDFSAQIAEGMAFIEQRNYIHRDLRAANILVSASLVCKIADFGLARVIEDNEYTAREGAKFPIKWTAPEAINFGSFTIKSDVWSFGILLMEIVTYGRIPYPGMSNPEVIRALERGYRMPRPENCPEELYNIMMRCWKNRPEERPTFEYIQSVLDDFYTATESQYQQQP
FGFR1, sequence (P11362 whole entry, looked up): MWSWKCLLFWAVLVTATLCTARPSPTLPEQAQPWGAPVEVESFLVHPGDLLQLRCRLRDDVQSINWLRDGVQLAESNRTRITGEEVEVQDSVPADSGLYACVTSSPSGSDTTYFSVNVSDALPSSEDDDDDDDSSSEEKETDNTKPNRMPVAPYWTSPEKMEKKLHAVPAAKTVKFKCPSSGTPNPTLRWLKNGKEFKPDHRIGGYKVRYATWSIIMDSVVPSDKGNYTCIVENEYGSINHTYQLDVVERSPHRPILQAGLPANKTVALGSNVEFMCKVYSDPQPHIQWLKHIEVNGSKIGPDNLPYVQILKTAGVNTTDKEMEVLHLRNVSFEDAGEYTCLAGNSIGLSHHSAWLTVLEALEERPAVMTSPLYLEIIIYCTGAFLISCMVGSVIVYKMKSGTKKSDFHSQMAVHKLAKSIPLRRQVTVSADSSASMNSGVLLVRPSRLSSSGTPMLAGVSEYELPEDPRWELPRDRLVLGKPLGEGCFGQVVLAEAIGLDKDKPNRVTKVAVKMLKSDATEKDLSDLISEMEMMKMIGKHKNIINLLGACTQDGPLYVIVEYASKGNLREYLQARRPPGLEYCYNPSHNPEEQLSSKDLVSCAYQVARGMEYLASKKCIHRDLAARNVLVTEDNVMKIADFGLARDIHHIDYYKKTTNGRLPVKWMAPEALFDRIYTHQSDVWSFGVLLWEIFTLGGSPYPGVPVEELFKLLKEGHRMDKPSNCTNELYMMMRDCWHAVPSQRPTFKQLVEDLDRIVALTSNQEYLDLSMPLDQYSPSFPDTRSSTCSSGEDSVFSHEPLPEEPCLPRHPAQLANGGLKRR
FGFR3, sequence (P22607 whole entry, looked up): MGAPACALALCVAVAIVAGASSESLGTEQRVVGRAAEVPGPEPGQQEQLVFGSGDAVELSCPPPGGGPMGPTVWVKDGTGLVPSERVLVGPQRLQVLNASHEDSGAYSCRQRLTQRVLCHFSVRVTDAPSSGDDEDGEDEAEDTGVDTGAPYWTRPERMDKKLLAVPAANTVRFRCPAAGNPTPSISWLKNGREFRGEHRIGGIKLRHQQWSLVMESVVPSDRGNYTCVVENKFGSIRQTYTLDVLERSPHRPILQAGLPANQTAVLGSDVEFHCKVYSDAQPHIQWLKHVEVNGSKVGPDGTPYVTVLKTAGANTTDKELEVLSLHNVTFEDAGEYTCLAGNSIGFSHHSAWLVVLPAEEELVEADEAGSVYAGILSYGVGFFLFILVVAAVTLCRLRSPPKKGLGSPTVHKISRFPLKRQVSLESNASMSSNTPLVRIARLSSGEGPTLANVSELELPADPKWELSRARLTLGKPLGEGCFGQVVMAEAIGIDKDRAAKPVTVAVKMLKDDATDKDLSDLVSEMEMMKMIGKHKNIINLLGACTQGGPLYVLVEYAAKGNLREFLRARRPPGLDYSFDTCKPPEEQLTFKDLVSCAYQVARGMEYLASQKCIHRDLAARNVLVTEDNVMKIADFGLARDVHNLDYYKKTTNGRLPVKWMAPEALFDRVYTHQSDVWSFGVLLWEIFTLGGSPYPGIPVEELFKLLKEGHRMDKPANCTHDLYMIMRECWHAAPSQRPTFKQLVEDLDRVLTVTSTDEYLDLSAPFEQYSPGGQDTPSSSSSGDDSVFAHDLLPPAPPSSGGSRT
Jak2, sequence (O60674 whole entry, looked up): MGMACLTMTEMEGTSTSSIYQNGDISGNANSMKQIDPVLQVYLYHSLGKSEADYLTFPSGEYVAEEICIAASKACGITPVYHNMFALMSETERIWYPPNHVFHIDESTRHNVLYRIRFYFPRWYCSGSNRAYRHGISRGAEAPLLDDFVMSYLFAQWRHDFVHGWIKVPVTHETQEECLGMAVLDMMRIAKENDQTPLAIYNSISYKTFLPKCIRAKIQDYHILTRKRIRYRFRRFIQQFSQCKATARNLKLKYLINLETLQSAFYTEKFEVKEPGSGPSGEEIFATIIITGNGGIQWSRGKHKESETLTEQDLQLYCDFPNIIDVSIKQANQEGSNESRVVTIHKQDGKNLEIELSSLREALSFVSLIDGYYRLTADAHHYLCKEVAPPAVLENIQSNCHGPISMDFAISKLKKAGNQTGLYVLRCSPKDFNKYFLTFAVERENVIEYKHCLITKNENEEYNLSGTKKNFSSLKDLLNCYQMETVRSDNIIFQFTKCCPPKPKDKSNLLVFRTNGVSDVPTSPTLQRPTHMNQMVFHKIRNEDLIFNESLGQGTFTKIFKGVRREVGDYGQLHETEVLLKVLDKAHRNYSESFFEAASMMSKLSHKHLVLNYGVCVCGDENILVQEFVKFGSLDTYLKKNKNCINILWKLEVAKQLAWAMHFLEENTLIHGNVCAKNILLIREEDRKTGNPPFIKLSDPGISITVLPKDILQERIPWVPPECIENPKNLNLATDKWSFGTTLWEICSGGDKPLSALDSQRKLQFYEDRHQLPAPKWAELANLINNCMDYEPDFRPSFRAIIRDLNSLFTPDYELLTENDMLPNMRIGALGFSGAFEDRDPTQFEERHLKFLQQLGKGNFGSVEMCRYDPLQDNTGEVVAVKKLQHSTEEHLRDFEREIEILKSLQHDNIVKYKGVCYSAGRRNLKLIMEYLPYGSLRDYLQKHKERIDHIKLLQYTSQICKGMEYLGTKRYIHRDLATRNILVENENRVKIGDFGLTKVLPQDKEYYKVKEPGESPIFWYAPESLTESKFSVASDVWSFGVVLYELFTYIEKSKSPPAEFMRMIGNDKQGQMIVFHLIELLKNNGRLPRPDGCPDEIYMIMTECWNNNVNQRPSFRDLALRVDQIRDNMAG
MERTK, sequence (Q12866 whole entry, looked up): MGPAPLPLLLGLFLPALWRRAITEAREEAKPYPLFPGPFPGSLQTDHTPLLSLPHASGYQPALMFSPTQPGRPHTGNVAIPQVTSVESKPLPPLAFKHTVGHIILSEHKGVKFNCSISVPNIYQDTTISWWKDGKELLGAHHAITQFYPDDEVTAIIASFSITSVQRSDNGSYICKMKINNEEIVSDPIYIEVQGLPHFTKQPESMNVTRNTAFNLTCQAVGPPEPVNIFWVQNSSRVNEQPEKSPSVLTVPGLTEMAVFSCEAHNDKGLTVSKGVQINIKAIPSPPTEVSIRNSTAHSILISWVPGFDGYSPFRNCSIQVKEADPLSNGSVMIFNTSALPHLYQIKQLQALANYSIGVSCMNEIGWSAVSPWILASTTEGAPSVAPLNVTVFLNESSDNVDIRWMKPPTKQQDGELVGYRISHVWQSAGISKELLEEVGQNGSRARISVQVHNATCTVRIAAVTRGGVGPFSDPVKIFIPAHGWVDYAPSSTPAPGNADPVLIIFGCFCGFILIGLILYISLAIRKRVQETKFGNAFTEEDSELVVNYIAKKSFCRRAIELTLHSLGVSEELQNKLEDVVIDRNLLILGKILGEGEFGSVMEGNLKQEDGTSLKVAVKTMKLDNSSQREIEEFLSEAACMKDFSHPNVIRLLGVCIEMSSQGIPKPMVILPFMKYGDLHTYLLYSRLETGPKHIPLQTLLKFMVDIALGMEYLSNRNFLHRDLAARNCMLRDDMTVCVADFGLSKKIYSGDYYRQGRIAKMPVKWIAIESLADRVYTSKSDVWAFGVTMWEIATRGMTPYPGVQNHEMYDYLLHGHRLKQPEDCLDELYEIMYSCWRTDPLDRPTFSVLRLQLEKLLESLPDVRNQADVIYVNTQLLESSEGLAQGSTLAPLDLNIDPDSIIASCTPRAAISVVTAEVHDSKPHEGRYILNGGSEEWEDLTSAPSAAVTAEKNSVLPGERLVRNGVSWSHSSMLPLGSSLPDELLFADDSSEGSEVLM
Fyn, sequence (P06241 whole entry, looked up): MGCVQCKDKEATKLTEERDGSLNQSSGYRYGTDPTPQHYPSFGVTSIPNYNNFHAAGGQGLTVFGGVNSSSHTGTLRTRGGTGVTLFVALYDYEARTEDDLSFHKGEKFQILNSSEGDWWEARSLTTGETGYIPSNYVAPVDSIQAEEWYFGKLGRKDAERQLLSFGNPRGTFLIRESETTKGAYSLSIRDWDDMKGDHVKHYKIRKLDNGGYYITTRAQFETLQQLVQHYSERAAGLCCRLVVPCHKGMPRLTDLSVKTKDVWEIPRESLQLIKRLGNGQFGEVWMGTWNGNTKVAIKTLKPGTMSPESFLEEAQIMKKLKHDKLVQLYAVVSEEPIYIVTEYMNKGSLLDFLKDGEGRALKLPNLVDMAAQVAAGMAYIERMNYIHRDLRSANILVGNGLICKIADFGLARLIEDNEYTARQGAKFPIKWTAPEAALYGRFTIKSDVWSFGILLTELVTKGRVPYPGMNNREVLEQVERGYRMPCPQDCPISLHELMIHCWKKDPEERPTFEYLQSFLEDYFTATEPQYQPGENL

Row | SH2 binding enrichment (SHP2-C SH2) | SH2 binding enrichment (Grb2 SH2) | SH2 binding enrichment (c-Src SH2) | Sequence | phosphorylation enrichment (EPHB2) | phosphorylation enrichment (AncSZ) | phosphorylation enrichment (FGFR3) | phosphorylation enrichment (MERTK) | phosphorylation enrichment (Jak2) | phosphorylation enrichment (Fer (mouse)) | phosphorylation enrichment (Hck) | phosphorylation enrichment (EPHB1) | phosphorylation enrichment (c-Src) | phosphorylation enrichment (Fyn) | phosphorylation enrichment (FGFR1) | phosphorylation enrichment (c-Abl (mouse)) | phosphorylation enrichment (Fes)
1 | 0.654 | 0.744 | 0.406 | CDIPRYIVSQL [MAST2_Y461] | 0.577 | 1.04 | 0.618 | 0.501 | 1.04 | 0.454 | 0.482 | 0.535 | 0.442 | 0.506 | 0.497 | 0.816 | 1.02
2 | 0.731 | 0.764 | 0.339 | DRLANYLEKVR [KRT40_Y103_S102N] | 0.424 | 0.651 | 0.64 | 0.41 | 0.587 | 0.373 | 0.38 | 0.337 | 0.395 | 0.399 | 0.382 | 0.469 | 0.74
3 | 0.467 | 0.513 | 0.538 | ADRNHYRRYRR [YBX1_Y145_P149R] | 0.499 | 0.619 | 0.572 | 0.532 | 0.549 | 0.488 | 0.522 | 0.522 | 0.608 | 0.525 | 0.532 | 0.661 | 0.861
4 | 0.674 | 0.822 | 0.489 | AESPEHVHMYT [FAM111A_Y511_Y511H] | 0.474 | 0.812 | 0.609 | 0.377 | 0.687 | 0.432 | 0.547 | 0.523 | 0.369 | 0.476 | 0.533 | 0.476 | 0.861
5 | 0.727 | 0.875 | 0.514 | GIKAAYEAELG [LMNA_Y81] | 0.507 | 0.713 | 0.496 | 0.404 | 0.691 | 0.446 | 0.438 | 0.531 | 0.392 | 0.597 | 0.502 | 0.704 | 0.797
6 | 0.629 | 0.935 | 0.526 | DSSIRYLQEIY [FGG_Y135] | 0.585 | 0.893 | 0.655 | 0.438 | 0.733 | 0.549 | 0.948 | 0.587 | 1.14 | 0.776 | 0.59 | 0.567 | 1.02
7 | 0.65 | 0.75 | 0.918 | KLFRVYCDMNT [FGB_Y269_P265L_YF] | 0.619 | 1.11 | 0.701 | 0.432 | 1.17 | 0.523 | 0.471 | 0.777 | 0.463 | 0.463 | 0.548 | 0.838 | 1.33
8 | 1.12 | 0.856 | 0.499 | NTPNAYLRVNV [ADD2_Y440_T439A] | 0.465 | 0.868 | 0.667 | 0.404 | 0.806 | 0.405 | 0.469 | 0.463 | 0.391 | 0.437 | 0.437 | 0.706 | 0.934
9 | 0.646 | 0.684 | 0.428 | SWKRRYFLLWA [APBB1IP_Y331_R335W] | 0.5 | 0.686 | 0.545 | 0.59 | 0.571 | 0.433 | 0.497 | 0.443 | 0.661 | 0.576 | 0.479 | 0.478 | 0.591
10 | 0.89 | 0.673 | 0.703 | IDAICYFRMEN [NPHS2_Y194_YF] | 0.623 | 1.26 | 0.949 | 0.556 | 2.44 | 0.484 | 0.612 | 0.692 | 0.613 | 0.572 | 0.656 | 0.974 | 1.59
11 | 0.58 | 0.754 | 7.11 | LNCAGYCDALE [MTUS1_Y151] | 0.578 | 1.19 | 0.906 | 0.617 | 1.32 | 0.599 | 0.511 | 0.621 | 0.683 | 0.514 | 0.55 | 0.917 | 1.3
12 | 0.648 | 0.79 | 0.523 | GADAIYDHVNE [UQCR10_Y44_I47V] | 1.82 | 1.09 | 0.62 | 2.02 | 0.773 | 3.42 | 6.29 | 1.34 | 3.77 | 4.52 | 0.456 | 0.8 | 1.08

Continued, sequence first:

Row | Sequence | SH2 binding enrichment (SHP2-C SH2) | SH2 binding enrichment (Grb2 SH2) | SH2 binding enrichment (c-Src SH2) | phosphorylation enrichment (EPHB2) | phosphorylation enrichment (AncSZ) | phosphorylation enrichment (FGFR3) | phosphorylation enrichment (MERTK) | phosphorylation enrichment (Jak2) | phosphorylation enrichment (Fer (mouse)) | phosphorylation enrichment (Hck) | phosphorylation enrichment (EPHB1) | phosphorylation enrichment (c-Src) | phosphorylation enrichment (Fyn) | phosphorylation enrichment (FGFR1) | phosphorylation enrichment (c-Abl (mouse)) | phosphorylation enrichment (Fes)
13 | QTSTDYDIRFF [CSNK2A1_Y131_L128S_YF] | 0.864 | 1.15 | 0.477 | 1.22 | 2.12 | 1.41 | 0.688 | 1.61 | 0.809 | 0.968 | 1.27 | 0.892 | 1.43 | 0.667 | 1.18 | 1.81
14 | SNMPSYSGHFT [GRIN2A_Y1224_T1223S] | 0.631 | 0.79 | 0.548 | 0.408 | 0.476 | 0.421 | 0.411 | 0.614 | 1.6 | 0.425 | 0.417 | 0.463 | 0.465 | 0.328 | 0.444 | 0.599
15 | RVEDACILTCN [CCT6A_Y229_Y229C] | 0.738 | 0.85 | 0.657 | 0.688 | 0.994 | 0.968 | 0.683 | 1.18 | 0.571 | 0.751 | 0.622 | 0.727 | 0.551 | 0.708 | 0.86 | 1.12
16 | NIWDSYTTNKV [GNB1_Y85_I80N] | 0.709 | 0.983 | 0.425 | 0.488 | 1 | 0.658 | 0.387 | 0.663 | 0.414 | 0.497 | 0.515 | 0.437 | 0.416 | 0.497 | 0.656 | 0.9
17 | ASRKYYAMKIL [AKT3_Y174_G171R] | 1.14 | 1.1 | 1.18 | 0.338 | 0.505 | 0.535 | 0.437 | 0.385 | 0.441 | 0.368 | 0.367 | 0.265 | 0.348 | 0.475 | 0.379 | 0.634
18 | EKKKYYDTKIE [CASP5_Y104] | 0.505 | 0.752 | 0.498 | 0.518 | 0.863 | 0.637 | 0.443 | 0.779 | 0.381 | 0.511 | 0.366 | 0.452 | 0.486 | 0.365 | 0.761 | 1.03
19 | LRVHSYKSMQH [DRC7_Y516_P521H] | 1.18 | 0.881 | 0.841 | 0.772 | 1.4 | 0.69 | 0.896 | 1.42 | 0.949 | 0.634 | 0.911 | 1.06 | 0.954 | 0.533 | 1.13 | 0.883
20 | KKGIVYIFNGR [ITGAV_Y404] | 1.61 | 2.3 | 1.86 | 0.507 | 0.768 | 0.501 | 0.428 | 0.868 | 0.437 | 0.423 | 0.403 | 0.366 | 0.452 | 0.417 | 0.565 | 0.957
21 | DYSLKYPTDIP [APC_Y1183_A1184P] | 0.666 | 0.765 | 0.438 | 0.478 | 0.867 | 0.866 | 0.549 | 0.852 | 0.476 | 0.503 | 0.618 | 0.442 | 0.534 | 0.691 | 0.52 | 0.844
22 | KAFDMYSGDVM [FAM3D_Y122] | 0.559 | 0.829 | 0.462 | 1.15 | 0.832 | 0.569 | 0.876 | 0.653 | 0.423 | 1.23 | 1.18 | 0.935 | 0.846 | 0.593 | 0.508 | 0.732
23 | VGTKRYMAPDV [ACVRL1_Y375_E379D] | 0.522 | 0.573 | 0.496 | 0.402 | 0.424 | 0.412 | 0.277 | 0.415 | 0.35 | 0.334 | 0.42 | 0.293 | 0.306 | 0.296 | 0.494 | 0.491
24 | LFSINYLHFGE [KDM4C_Y201_YF] | 2.78 | 1.38 | 1.27 | 0.661 | 1.35 | 0.899 | 0.634 | 1.29 | 0.822 | 0.65 | 1.3 | 0.528 | 0.624 | 0.902 | 0.953 | 1.6
25 | ITNHIYTWVDP [DFNB31_Y234_V229I] | 0.791 | 1.05 | 0.99 | 1.62 | 2.4 | 2.95 | 8.78 | 1.06 | 9.75 | 2.66 | 2.92 | 4.2 | 4.11 | 3.64 | 0.832 | 1.97
26 | RFLERYIFNPE [HLA-DPB1_Y57_R61P_YF] | 0.835 | 3.06 | 0.794 | 0.666 | 1.27 | 0.624 | 0.521 | 1.39 | 0.627 | 0.51 | 0.892 | 0.804 | 0.557 | 0.46 | 1 | 1.25
27 | HLVLNYGVCVC [JAK2_Y613] | 0.795 | 0.796 | 0.52 | 1.27 | 2.33 | 1.8 | 1.44 | 1.99 | 0.99 | 0.985 | 1.61 | 0.779 | 1.1 | 0.91 | 1.49 | 2.31
28 | QELRRYLKSGI [MICA_Y194_V199I] | 0.525 | 0.747 | 0.434 | 0.281 | 0.489 | 0.313 | 0.406 | 0.335 | 0.534 | 0.496 | 0.332 | 0.294 | 0.482 | 0.429 | 0.402 | 0.458
29 | QHVPDYRQNGF [PCDHGA1_Y890_V894G_YF] | 0.633 | 0.776 | 0.494 | 0.459 | 0.787 | 0.597 | 0.464 | 0.826 | 0.503 | 0.455 | 0.589 | 0.543 | 0.531 | 0.55 | 0.758 | 0.875
